From patent publication EP1073891B1, “METHOD OF PREDICTING RECEPTOR MODULATING ACTIVITY” (Duke University, priority 1998, dated 1999)
Substitutions are numbered along the chain they refer to.

What was measured:
Assay in all cases: Mammalian two-hybrid with ERα AF-2 mutants (Examples 4.3, 101.3)
Assay type in all cases: cell-based
Conditions in all cases: mammalian two-hybrid (Fig. 9)
ER3X (D538N/E542Q/D545N) = biological target: T1, ER3X (D538N/E542Q/D545N) (Homo sapiens, UniProt P03372, D538N/D545N/E542Q)
T1 construct: expressed in transfected cells
T1 sequence (P03372 1-595 D538N/E542Q/D545N): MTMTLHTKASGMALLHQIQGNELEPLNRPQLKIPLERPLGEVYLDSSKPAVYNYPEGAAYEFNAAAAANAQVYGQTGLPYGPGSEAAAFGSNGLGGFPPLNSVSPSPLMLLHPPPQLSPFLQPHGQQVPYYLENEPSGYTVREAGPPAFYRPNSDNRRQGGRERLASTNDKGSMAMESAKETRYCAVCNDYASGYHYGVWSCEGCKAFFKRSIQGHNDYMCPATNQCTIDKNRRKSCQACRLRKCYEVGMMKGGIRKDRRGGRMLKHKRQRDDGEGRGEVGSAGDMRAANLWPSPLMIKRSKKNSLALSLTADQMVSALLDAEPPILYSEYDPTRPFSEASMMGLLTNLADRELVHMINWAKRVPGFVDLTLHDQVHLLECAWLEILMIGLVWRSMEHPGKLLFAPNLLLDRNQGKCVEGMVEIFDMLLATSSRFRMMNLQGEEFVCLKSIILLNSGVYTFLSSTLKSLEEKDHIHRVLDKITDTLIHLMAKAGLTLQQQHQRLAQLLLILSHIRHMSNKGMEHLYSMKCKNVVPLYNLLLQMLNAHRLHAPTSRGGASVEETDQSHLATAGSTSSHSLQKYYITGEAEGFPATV
From the text: (§1) Peptide sequences representing each class was fused to the DNA binding domain (DBD) of the yeast transcription factor Ga14. HepG2 cells were then transiently transfected with expression vectors for ERα-VP16 and the Gal4-peptide fusion proteins. In addition, a luciferase reporter construct under the control of 5 copies of a Ga14 upstream enhancer element was also transfected along with a pCMV-β galactosidase vector to normalize for transfection efficiency. Transfection of the Ga14 DBD alone is included as control. Cells were then induced with various ligands as indicated in the figure and assayed for luciferase activity and β galactosidase activity. Normalized response was obtained by dividing the luciferase activity by the β galactosidase activity.
(§2) Three ERα mutants were compared with wild-type ERα. ER-LL was characterized by mutations L540A/L541A. Mutant ER3X was characterized by mutations D538N/E542Q/D545N. Finally, mutant ER-535 STOP was truncated after residue V535. […] Experimental design is the same as in figure 7 except that either (A) ER3X (B) ERLL or (C) ER535-stop was analyzed for binding to conformation sensitive peptides.
(§3) To test whether different LXXLL motif peptides interact within the same region of ER, mammalian two hybrid assays were used. Selected peptide sequences and different ER mutants (ER-LL, ER-3X, ER-535 STOP) were expressed as fusion proteins to Gal4DBD and VP16 (TAD), respectively.

ER535-stop = biological target: T2, ER535-stop (Homo sapiens, UniProt P03372)
T2 construct: mutant ER-535 STOP was truncated after residue V535; expressed in transfected cells
T2 sequence (P03372 1-534): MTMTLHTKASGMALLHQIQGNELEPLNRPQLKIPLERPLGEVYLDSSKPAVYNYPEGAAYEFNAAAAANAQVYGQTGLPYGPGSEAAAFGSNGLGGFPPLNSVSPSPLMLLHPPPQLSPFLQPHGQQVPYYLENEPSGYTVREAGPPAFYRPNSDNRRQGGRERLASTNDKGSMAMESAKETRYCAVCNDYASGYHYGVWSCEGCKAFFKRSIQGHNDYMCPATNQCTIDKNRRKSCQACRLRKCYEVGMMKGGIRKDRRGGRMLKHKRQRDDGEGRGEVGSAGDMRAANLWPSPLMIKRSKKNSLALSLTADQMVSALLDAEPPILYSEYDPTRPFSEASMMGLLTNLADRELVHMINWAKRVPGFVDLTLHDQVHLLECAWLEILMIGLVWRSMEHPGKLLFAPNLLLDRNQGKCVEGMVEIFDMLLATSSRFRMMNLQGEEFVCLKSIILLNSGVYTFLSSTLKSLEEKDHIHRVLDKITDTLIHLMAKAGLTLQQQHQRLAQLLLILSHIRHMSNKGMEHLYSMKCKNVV
From the text: as §1, §2, §3

ERLL (L540A/L541A) = biological target: T3, ERLL (L540A/L541A) (Homo sapiens, UniProt P03372, L540A/L541A)
T3 construct: expressed in transfected cells
T3 sequence (P03372 1-595 L540A/L541A): T1 sequence (P03372 1-595 D538N/E542Q/D545N) with N538D, L540A, L541A, Q542E, N545D
From the text: as §1, §2, §3

interaction with the ER3X mutant receptor (ER3X (D538N/E542Q/D545N)) | interaction with the ER535-stop mutant receptor (ER535-stop) | interaction with the ERLL mutant receptor (ERLL (L540A/L541A)) | Sequence
largely unaffected | largely unaffected | largely unaffected | SSLTSRDFGSWYASR [α II]
retains some ability to engage | unable to interact | unable to interact | SSNHQSSRLIELLSR [α/β I]
loss of the tamoxifen specificity | loss of the tamoxifen specificity | loss of the tamoxifen specificity | SSPGSREWFKDMLSR [α/β V]
loss of the tamoxifen specificity | loss of the tamoxifen specificity | loss of the tamoxifen specificity | SSWDMHQFFWEGVSR [α/β III]
